Laboratory results published in the supplement of paper PMC9170038.

Test system: K4 kissing-loop RNA reporter
Experiment: apparent KD of K4 kissing-loop reporter; higher = weaker reporter binding
Settings: Eterna round: R107
Protocol: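 RNA-MaP round R107: designed RNA switches with theophylline, tryptophan, arginine or FMN aptamers are transcribed on-chip within common flanks. They are titrated with a labelled K4 kissing-loop RNA reporter in RNA-MaP buffer (100 mM Tris pH 7.5, 80 mM KCl, 4 mM MgCl2), without ligand or with the indicated ligand. Median apparent KD per design.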

[1] = input ligand: theophylline 20 uM
[2] = input ligand: tryptophan 2.4 mM
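Also: bound reporter read as fluorescence of individual clusters on recovered sequencing chips by microscopy, with normalized cluster intensities fitted with a binding model.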

| Sequence | apparent KD of K4 kissing-loop reporter (input ligand: FMN 200 uM) | apparent KD of K4 kissing-loop reporter (input ligand: arginine 13.2 mM) | apparent KD of K4 kissing-loop reporter (input ligand: none) | apparent KD of K4 kissing-loop reporter [1] | apparent KD of K4 kissing-loop reporter [2] |
| --- | --- | --- | --- | --- | --- |
| UAUACGAAGCAGUGAUGUUGCUUAUGAGAAGGAGCGCACGAAAGUGCAGGUAGGUCGCUCAGCCAUGUGGACGAAAACGUCCACA [whbob_SS_Arginine_A_sa110] | 108 nM | 130 nM | 109 nM | 137 nM | 93 nM |
| AUACGCGAUAGCGUAUAUAACUUUUCAGAAGGAGCGUGGAAGUACACAGGUAGGUCGCUGAAUAUAGGACUAGUGAUGUUAGUUA [JR_Nu_SSArginiA_Sub025] | 195 nM | 220 nM | 235 nM | 218 nM | 186 nM |
| AGACGAGAUGAAGGAUAUGCGGACAAAGUGAUGUUUUGUCCGAAAGUAGGCAGUAAUAUCGAAAAUGCAGAAGGUCAAGAACAUA [theeternabot_exclusion_KL_FMN_B_36] | 135 nM | 173 nM | 143 nM | 256 nM | 145 nM |
| AAGAGCCUCAAGAGGCAGUAUCUGCCUCAACGAGGACCGGUACGGCCGCCACUCGAAUAAUAGAGUGAUGUUCUAAGAGGCUCAA [AK8 SS Tryptophan A] | 710 nM | 558 nM | 586 nM | 548 nM | 487 nM |
| GGCGGCCGCGCGAAAGCGCGGCCGGCCGAUACCAGCGCGCCGGCGCGCCCUUGGCAGCGGCGCCGAGUGAUGUUCGGCCUGCCGU [#2 Same State - Theophylline A Attempt #12 (HarryS)] | 144 nM | 101 nM | 112 nM | 134 nM | 125 nM |
| UGUCAUUGGUCGGCCGCCACUUCAUGUAGAGUGAUGUUUUGUAGGACGGAUCGAAAGAUCUGUCGAAGGACCGGGACCGAUGACU [FiskerMod 15 - Jieux - Same State - Tryptophan B] | 233 nM | 84.7 nM | 197 nM | 235 nM | 1040 nM |
| UUAUCAUCAGCGGCCGCCACUGCAAAUUGGAGUGAUGUUCCAAGCGUGGAUAAUGAAAUCACUAGUAGGACCGGGUUGAUGAAUU [AK 1 Ex Trypt B] | 309 nM | 231 nM | 270 nM | 254 nM | 306 nM |
| CUGGGUUGACGAAAAGUCAACAAAAGAGAAGGAGCGCACGAAAGUGCAGGUAGGUCGCUCAGUCCAGUGAUGUUGGAUCAUCCAG [#SwitchBubble 11 #K4Late] | 324 nM | 502 nM | 484 nM | 454 nM | 346 nM |
| CUAUCUUAAGAAGGAUAUUAUGUAACAAACGCAGGCGUAUUAGAAUCAGUGAUGUUGAAAUAGGUUUAAGAAGGUCUUAAAGAAA [theeternabot_sameState_KL_FMN_B_31] | 593 nM | 422 nM | 326 nM | 608 nM | 243 nM |
| AGAGUUAUAUGAGGAUAUGGGAUAGUAAAUGAGUGAGUUAUAGUGUAGUUUGUUUAGUGAUGUUAUUUAGAAGGCGUGAGUGAUG [dgnnmullin] | 193 nM | 114 nM | 100 nM | 113 nM | 86.4 nM |
| AUUUAAUUAACUGAUACCAGACUUUUUGUUUUGAUAAUUACUAGUGAUGUUAGUGUUUCUGUCCCUUGGCAGCAGUAUCUACUUA [JR_ExcTheophyB_Sub017] | 121 nM | 177 nM | 122 nM | 209 nM | 106 nM |
| GAUUAAUAAGAGGAUACCAGUACAAAUAAAGUACAUUAAUAGUAGAGUGAUGUUCUAAAGUACCCUUGGCAGCUUAGAGUAAGUU [ExTheophylB.A] | 119 nM | 207 nM | 174 nM | 226 nM | 94.4 nM |
| CGCAGUGAUGUUGCUAUUAUUCUUGAUUAACGAGGACCGGUACGGCCGCCACUCGAUUUCUAUCUAAUCCAGUGUUUUGUUGAGU [JR_ExcTryptoA_Sub002] | 324 nM | 422 nM | 346 nM | 455 nM | 240 nM |
| AAAGUAUACUGAAGGAGCGAGUAGUGGAAACAUAAACUCAUUGCGAGUGAUGUUCGCAGUACUCAGGUAGGUCGCGGUAAUCGUA [Exclusion Arginine B Gf 12] | 499 nM | 498 nM | 934 nM | 554 nM | 558 nM |
| UUAACCAACAGCGAUACCAGCGUGGAGUGAUGUUCCGAGGAUCGGAGUGAUGUUCCGAAGCGCCCUUGGCAGCGCAGAAGCGCAA [Exclusion Theophylline B GF8] | 193 nM | 148 nM | 241 nM | 251 nM | 255 nM |
| AAACAUCACUGGGAGUGAUGUUCUCAGUGACGAGGACCGGUACGGCCGCCACUCGCGAGAGAUAUAGUCUAGUAAUGACUGCAUU [Excl Tryptophan A V9] | 299 nM | 274 nM | 292 nM | 322 nM | 391 nM |

| Sequence | apparent KD of K4 kissing-loop reporter (input ligand: FMN 200 uM) | apparent KD of K4 kissing-loop reporter (input ligand: arginine 13.2 mM) | apparent KD of K4 kissing-loop reporter (input ligand: none) | apparent KD of K4 kissing-loop reporter [1] | apparent KD of K4 kissing-loop reporter [2] |
| --- | --- | --- | --- | --- | --- |
| ACUGAGCAUGCGGCCGCCACUUCAGAACGUCGCCCAAAGGGCGACGCCUCCAGAGUGAUGUUCUGGAGGACCGGGCAUGUUCAGA [Omei KL Tryp B Exc A v1] | 540 nM | 300 nM | 506 nM | 450 nM | 112 nM |
| CGAGUGAUGUUCGUUUUUUUAUUUUUUUGACAGGAUAUGCGGAAACGCAGAAGGGUCACCUUUGAGUUAAAAGAAUUUAAAUUAU [Ex FMN A 23] | 278 nM | 208 nM | 254 nM | 213 nM | 193 nM |
| AGAGAUAUAUGAGGAUAUGAGAUAGUUAAUGAGUGAGUUAUAGUGUAGUUUGGUUAGUGAUGUUAUUUAGAAGGCGUGAGUGAUG [reefmullin] | 140 nM | 76.7 nM | 131 nM | 107 nM | 83.3 nM |
| UUGCCUUUGAGCGAUACCAGCAGCGUCGGCCUUAGAUUGGGAGGCAUGGCAAGUGAUGUUUGCCCUUGGCAGCGCGUAUAGUACA [theeternabot_exclusion_KL_Theo_B_7] | 197 nM | 320 nM | 459 nM | 439 nM | 219 nM |
| UGUCAUUGGUCUGAUACCAGUCCCUUGGCAGCCUAAAGGAGUGAUGUUCCAAGGAUACCAGACCCUUGGCAGCAGACCGAUGACU [TheoBS 28 #DoubleAptamer #SwitchBubble] | 351 nM | 312 nM | 360 nM | 260 nM | 354 nM |
| CGACGCCGGUCGGCCGCCACUCACAGCAGCCAGUGAUGUUGGAUUGUAGCGGAGUGAUGUUUCGCGAGGACCGGGACUGCAGUCG [Same State Tryptophan B GF 12] | 167 nM | 131 nM | 129 nM | 130 nM | 143 nM |
| AGAGUUUUAUGAGGAUAUGAGAUAGUUAAUGAGUGAGUUAUAGUGUAGUUUGUUUAGUGAUGUUAUUUAGAAGGCGUGAGUGAUG [ssxsmullin] | 151 nM | 95.9 nM | 122 nM | 132 nM | 84.4 nM |
| UCCUGCAAUCCACCACGAAAGUGGAUGGAUACCAGAGUCGAAAGACUCCCUUGGCAGCCAGUGAUGUUGGAGCAGGUAAAAUAAA | 526 nM | 532 nM | 630 nM | 402 nM | 473 nM |
| AGCAGUCACUCGAAAACCAUCGAAGAUGGACGAGGACCGGUACGGCCGCCACUCGGAGUGAUGUUCCGAAGACUGCAAAAUAAAA [#SwitchBubble 16] | 380 nM | 402 nM | 433 nM | 346 nM | 435 nM |
| UGGCGACUGCCAGUGAUGUUGGCCGUCGUACGAGGACCGGUACGGCCGCCACUCGUCCUGGUUUAGGCUCCGCCUUCACAUCAGG [Beterire] | 401 nM | 326 nM | 393 nM | 784 nM | 309 nM |
| CCCUCACGAGUGAUGUUCGUAGGGUACAGUCAGGAUAUCAUGCGGUUGAGAAGGGACAGAGAGGGCGGCCACGGGUUGCUCCUCU [Lariusteza] | 183 nM | 259 nM | 386 nM | 345 nM | 305 nM |
| AGGAUCCGUCGACAAAAGUCGACAUAAACCGAGGAUAUGACGAAAGUCAGAAGGUGGUCAUAAGACCAGUGAUGUUGGUGGAUCC [FmnA 14 #SwitchBubble #K4Late] | 1250 nM | 282 nM | 494 nM | 318 nM | 305 nM |
| ACCUACGAUCACAAAAGUGAUUGUAGGAUCUAGGAUAUGCUGAAAAGCAGAAGGAGAGUGAUGUUCUCAACUCACGAAAGUGAGA [FmnAX 1 #OpenEnded #K4Late] | 354 nM | 184 nM | 183 nM | 182 nM | 173 nM |
| AAAAUAAUCCAGUGAUGUUGGUAACCAGAUACCAGCGACGAAAGUCGCCCUUGGCAGCUGUGGACGUACAAAAUAAGUACGUCCU | 344 nM | 415 nM | 441 nM | 358 nM | 312 nM |
| CCGUGGAGUGAUGUUCCACGUUCUACGGAUACCAGCUUUGCCAAAGGCCCUUGGCAGCCGCACCUUGCAGUGAUGUUGUGAGGCU [Same State Theophylline A Gf7] | 329 nM | 268 nM | 305 nM | 302 nM | 274 nM |
| UUUAUAUUGUCGGCCGCCACUGGAUCAAUAUUUGUAUGAUCUAGUUCAAAGUGAUGUUUUGAGUCCAGGACCGGGACAUUUGUUA [JR_ExcTryptoB_Sub005] | 708 nM | 558 nM | 669 nM | 558 nM | 917 nM |
